The term EC50 denotes the midpoint of the concentration-response curve. Lower therefore signals greater potency.

Assay [1] concerns the target T1, human IL-4RA-hFc (human, UniProt P24394 26-232).
T1 construct: mature; no linker is stated
T1 sequence (looked up): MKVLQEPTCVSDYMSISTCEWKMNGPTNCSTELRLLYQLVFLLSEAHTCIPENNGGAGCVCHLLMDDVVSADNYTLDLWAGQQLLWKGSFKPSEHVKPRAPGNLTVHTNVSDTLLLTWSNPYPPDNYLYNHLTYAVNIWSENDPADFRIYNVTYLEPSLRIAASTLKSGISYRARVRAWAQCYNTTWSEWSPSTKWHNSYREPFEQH
Kind of assay: indirect ELISA, coated IL-4RA-hFc 1 ug/mL, 4-parameter fit. Here is the method:
Procedures: The Elisa plates were coated with human IL-4RA-hFc or human IL-4RA-mFc and were incubated, and the target antibodies were added after blocking. […] The plates were incubated and washed before TMB (Neogen, 308177) was added for chromogenic reaction. At the end of the reaction, the absorbance at 450 nm was measured by a microplate reader. The data were analyzed and processed by SoftMax Pro 6.2.1.
For orientation: An ELISA detects its analyte on a solid surface through an enzyme-linked reagent.

Assay [2] addresses T1, human IL-4RA-hFc. As to the kind of experiment: competitive ELISA, competitor IL4-N-His (anti-His signal); antibody 3 ug/mL. On the procedure: (§1) The Elisa plates were coated with human IL-4RA-hFc and blocked before the target antibodies were added. […] After the plates were washed, mouse anti-His, HRP (purchased from CoWin Biosciences, Cat No. CW0285A) was added for incubation. The plates were subjected to another wash. A chromogenic reaction was performed by adding TMB (Neogen, 308177) and was then terminated. The Elisa plates were put into a microplate reader immediately, and the OD value of each well in the Elisa plates was read at 450 nm. The data were analyzed and processed by SoftMax Pro 6.2.1.

For assay [3], the target named is T1, human IL-4RA-hFc. Kind of assay: competitive ELISA, competitor IL4-N-His, coated IL-4RA-hFc, 4-parameter fit. On the procedure: as §1
By 4-parameter logistic regression of absorbance vs. antibody concentration, the blocking EC₅₀ of the antibodies was calculated.

B1: anti-human IL-4RA antibody 13E5 (antibody, V domains shown)
VH: EVQLQQSGPELVKPGASVKISCKTSGYTFTEYTIHWVKQNHGKSLEWIGGINPNNGGTVYNQNFKGKATLTVDKSSSTAYMELRSLTSEDSAVYYCARVRRGMDYWGQGTSVTVSS
VL: DIVMTQSHKFMSTSVGDRVSITCKASQDVTTAVAWYQQKPGQSPKLLIYSASYRYTGVPDRFTGSGSGTDFTFTISSVQAEDLAVYYCQQHYSAPWTFGGGTNLEIK
notes: also called murine antibody 13E5; monoclonal antibody of hybridoma cell line LT008 (IL-4RA-13E5), CCTCC NO: C2018131
Consider B1, for which the EC50 with human IL-4RA-hFc [1] is 0.084 nM; with human IL-4RA-hFc [3] it was 3 nM. Moreover, the “OD 450 nm” value in the assay with human IL-4RA-hFc [2] was 0.053 OD.

The values above are taken from patent publication US20250304703A1 (AKESO BIOPHARMA, published 2025).
